Data: PMC9822811 (2023)

Molecular target: recombinant SARS-CoV-2 RBD of original WT strain (SARS-CoV-2, UniProt P0DTC2 319-541)
Test: SPR

B1: REGN10987 (antibody, V domains shown)
VH: QVQLVESGGGVVQPGRSLRLSCAASGFTFSNYAMYWVRQAPGKGLEWVAVISYDGSNKYYADSVKGRFTISRDNSKNTLYLQMNSLRTEDTAVYYCASGSDYGDYLLVYWGQGTLVTVSS
VL: QSALTQPASVSGSPGQSITISCTGTSSDVGGYNYVSWYQQHPGKAPKLMIYDVSKRPSGVSNRFSGSKSGNTASLTISGLQSEDEADYYCNSLTSISTWVFGGGTKLTVL
B1 showed a Kd of 1.62 nM.
